Data reported in paper PMC7512442.

Target: T1, RBM22 (pre-mRNA-splicing factor RBM22) (Homo sapiens, UniProt Q9NW64 1-420)
T1 sequence: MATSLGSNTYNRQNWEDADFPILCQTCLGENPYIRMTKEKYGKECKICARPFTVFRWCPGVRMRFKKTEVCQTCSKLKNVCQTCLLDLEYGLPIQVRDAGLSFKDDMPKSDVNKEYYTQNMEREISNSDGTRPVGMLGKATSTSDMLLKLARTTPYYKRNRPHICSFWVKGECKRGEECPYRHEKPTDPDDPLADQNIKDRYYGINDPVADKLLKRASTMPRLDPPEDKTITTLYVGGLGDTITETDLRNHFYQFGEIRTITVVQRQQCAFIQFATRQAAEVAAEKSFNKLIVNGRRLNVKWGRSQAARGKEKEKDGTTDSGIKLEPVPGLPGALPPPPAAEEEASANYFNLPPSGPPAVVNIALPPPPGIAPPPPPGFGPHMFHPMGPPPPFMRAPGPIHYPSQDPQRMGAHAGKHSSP
Test: EMSA

B1: human U5 snRNA fragment (nonspecific control) (ssRNA)
RNA: GGGGAUCCACAUGGUUCUUGCCUUUU
  binding result: no binding
